According to article PMC7982548 (The Journal of Biological Chemistry, 2005):
Where two headings read alike, the source gives them in different places.

B1: full-length SARS coronavirus 3C-like proteinase (enzyme)
chain: SGFRKMAFPSGKVEGCMVQVTCGTTTLNGLWLDDTVYCPRHVICTAEDMLNPNYEDLLIRKSNHSFLVQAGNVQLRVIGHSMQNCLLRLKVDTSNPKTPKYKFVRIQPGQTFSVLACYNGSPSGVYQCAMRPNHTIKGSFLNGSCGSVGFNIDYDCVSFCYMHHMELPTGVHAGTDLEGKFYGPFVDRQTAQAAGTDTTITLNVLAWLYAAVINGDRWFLNRFTTTLNDFNLVAMKYNYEPLTQDHVDILGPLSAQTGIAVLDMCAALKELLQNGMNGRTILGSTILEDEFTPFDVVRQCSGVTFQ
B2: N-terminal deleted SARS 3CL^pro (residues 8-303) (domain or fragment)
chain: FPSGKVEGCMVQVTCGTTTLNGLWLDDTVYCPRHVICTAEDMLNPNYEDLLIRKSNHSFLVQAGNVQLRVIGHSMQNCLLRLKVDTSNPKTPKYKFVRIQPGQTFSVLACYNGSPSGVYQCAMRPNHTIKGSFLNGSCGSVGFNIDYDCVSFCYMHHMELPTGVHAGTDLEGKFYGPFVDRQTAQAAGTDTTITLNVLAWLYAAVINGDRWFLNRFTTTLNDFNLVAMKYNYEPLTQDHVDILGPLSAQTGIAVLDMCAALKELLQNGMNGRTILGSTILEDEFTPFDVVRQCSGVTFQ

Assays:
[1] = molecular target: 6-amino acid model peptide substrate ([…]); test: SPR
ITC [2] = molecular target: the molecule itself; test: ITC
SEC = molecular target: the molecule itself; test: SEC
ITC [3] = molecular target: the molecule itself; test: ITC; remark: listed apart in the source

Binder | Kd [1] [µM] | Kd (ITC [2]) [µM] | dH (ITC [2]) [kcal/mol] | dimer/monomer ratio at 1 mg/ml (SEC) | dimer/monomer ratio at 2 mg/ml (SEC) | dimer/monomer ratio at 7 mg/ml (SEC) | Kd (ITC [3]) [µM]
B1 | ~152 | 227 ± 34 | -8.28 ± 0.103 | – | – | – | –
B2 | – | 262 ± 15 | -6.89 ± 0.25 | 0.65 | 0.66 | 0.8 | 261 ± 15
